Results as given in patent publication US20250276075A1, “METHODS OF TREATING AXL-EXPRESSING CANCERS WITH ANTI-AXL ANTIBODIES, ANTIBODY FRAGMENTS AND THEIR IMMUNOCONJUGATES” (BIOATLA, INC., priority 2020, published 2025).
Where a chain is given by its changes, count along the chain named. Names may count otherwise.

B1: HC-H100D (antibody, V domains shown)
VH: EVQLVQSGAEVKKPGATVKISCKVSGYSFTGHTMNWIRQPPGKGLEWIGLIKPSNGGTSYNQKFKGRVTISADKSISTAYLQWSSLKASDTAMYYCAHGDYESYFAMDYWGQGTLVTVSS
VL: DIQMTQSPSSLSASVGDRVTITCKASQDVSSAVAWYQQKPGQAPRLLIYWASTRHTGVPSRFSGSGSGTEFTLTISSLQPDDFATYYCQEHFSTPLTFGQGTKVEIK
B2: HC-S059T (antibody, V domains shown)
VH: B1 VH with S59T, D100H
VL: B1 VL
B3: HC-H100E (antibody, V domains shown)
VH: B1 VH with D100E
VL: B1 VL
B4: HC-E102V (antibody, V domains shown)
VH: B1 VH with D100H, E102V
VL: B1 VL
B5: HC-S103D (antibody, V domains shown)
VH: B1 VH with D100H, S103D
VL: B1 VL
B6: HC-H100P (antibody, V domains shown)
VH: B1 VH with D100P
VL: B1 VL
B7: HC-H100W (antibody, V domains shown)
VH: B1 VH with D100W
VL: B1 VL
B8: HC-E102L (antibody, V domains shown)
VH: B1 VH with D100H, E102L
VL: B1 VL
B9: HC-E102Y (antibody, V domains shown)
VH: B1 VH with D100H, E102Y
VL: B1 VL
B10: HC-S103M (antibody, V domains shown)
VH: B1 VH with D100H, S103M
VL: B1 VL
B11: HC-S103N (antibody, V domains shown)
VH: B1 VH with D100H, S103N
VL: B1 VL
B12: HC-Y104C (antibody, V domains shown)
VH: B1 VH with D100H, Y104C
VL: B1 VL
B13: HC-S103Q (antibody, V domains shown)
VH: B1 VH with D100H, S103Q
VL: B1 VL
B14: HC-H100R (antibody, V domains shown)
VH: B1 VH with D100R
VL: B1 VL
B15: HC-Y101N (antibody, V domains shown)
VH: B1 VH with D100H, Y101N
VL: B1 VL
B16: HC-Y104E (antibody, V domains shown)
VH: B1 VH with D100H, Y104E
VL: B1 VL
B17: LC-P095T (antibody, V domains shown)
VH: B1 VH with D100H
VL: B1 VL with P95T
B18: LC-P095V (antibody, V domains shown)
VH: B1 VH with D100H
VL: B1 VL with P95V
B19: LC-L096R (antibody, V domains shown)
VH: B1 VH with D100H
VL: B1 VL with L96R
B20: LC-P095W (antibody, V domains shown)
VH: B1 VH with D100H
VL: B1 VL with P95W
B21: LC-T097I (antibody, V domains shown)
VH: B1 VH with D100H
VL: B1 VL with T97I

Target: T1, Axl (Homo sapiens, UniProt P30530)
T1 sequence (P30530 26-451 limits assumed): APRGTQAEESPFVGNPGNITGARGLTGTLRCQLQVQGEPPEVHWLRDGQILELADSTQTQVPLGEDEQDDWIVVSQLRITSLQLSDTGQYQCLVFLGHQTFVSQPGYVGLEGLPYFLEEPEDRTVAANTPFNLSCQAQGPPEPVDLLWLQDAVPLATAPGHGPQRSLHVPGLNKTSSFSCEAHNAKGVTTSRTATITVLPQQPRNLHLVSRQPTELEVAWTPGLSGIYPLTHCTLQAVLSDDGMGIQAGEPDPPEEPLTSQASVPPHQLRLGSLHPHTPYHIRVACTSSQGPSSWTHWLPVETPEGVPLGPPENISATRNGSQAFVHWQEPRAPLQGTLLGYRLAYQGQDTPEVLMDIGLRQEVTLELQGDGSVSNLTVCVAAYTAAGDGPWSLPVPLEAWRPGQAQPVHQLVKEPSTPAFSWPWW
Assay: Affinity ELISA of CPE mutant antibodies for binding to Axl at pH 6.0 over pH 7.4
Details: heavy chain variable region mutants; 1:3 dilution
Summary of the method: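 Single-point mutant anti-Axl antibody library (CPE) screened by ELISA for binding at pH 6.0 versus pH 7.4, at 1:3 and 1:9 antibody dilutions, in serum with FLAG-tag detection and carbonate (Krebs-Ringer) buffer. Selection criterion: pH 6.0/pH 7.4 binding ratio ≥1.5 at either dilution.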

Molecule | Affinity ELISA CPE mutant ratio (1:3, pH 6.0/7.4)
B1 | 2.416
B2 | 1.021
B3 | 2.775
B4 | 1.931
B5 | 4.237
B6 | 2.575
B7 | 4.937
B8 | 3.266
B9 | 2.610
B10 | 1.784
B11 | 1.075
B12 | 1.845
B13 | 0.912
B14 | 1.877
B15 | 2.174
B16 | 1.321

Same assay, conditions: heavy chain variable region mutants; 1:9 dilution

Molecule | Affinity ELISA CPE mutant ratio (1:9, pH 6.0/7.4)
B1 | 3.094
B2 | 1.926
B3 | 3.623
B4 | 2.507
B5 | 2.230
B6 | 1.179
B7 | 5.908
B8 | 2.698
B9 | 1.990
B10 | 1.806
B11 | 3.179
B12 | 1.741
B13 | 2.256
B14 | 2.507
B15 | 2.907
B16 | 1.796

Same assay, conditions: light chain variable region mutants; 1:3 dilution

Molecule | Affinity ELISA CPE mutant ratio (1:3, pH 6.0/7.4)
B17 | 2.497
B18 | 1.871
B19 | 2.876
B20 | 2.148
B21 | 3.086

Same assay, conditions: light chain variable region mutants; 1:9 dilution

Molecule | Affinity ELISA CPE mutant ratio (1:9, pH 6.0/7.4)
B17 | 2.086
B18 | 2.132
B19 | 2.176
B20 | 2.263
B21 | 4.049

Target: Axl (UniProt P30530)
Assay: ELISA, 1:3 dilution
Details: not given

Molecule | Affinity ELISA CPE mutant ratio (1:3, pH 6.0/7.4)
B17 | 2.5
B1 | 2.42
B18 | 1.87
B2 | 1.02
B3 | 2.77
B4 | 1.93
B5 | 4.24
B19 | 2.88
B6 | 2.58
B7 | 4.94
B8 | 3.27
B9 | 2.61
B20 | 2.15
B21 | 3.09
B10 | 1.78
B11 | 1.07
B12 | 1.84
B13 | 0.912
B14 | 1.88
B15 | 2.17
B16 | 1.32

Target: Axl (UniProt P30530)
Assay: ELISA, 1:9 dilution
Details: not given

Molecule | Affinity ELISA CPE mutant ratio (1:9, pH 6.0/7.4)
B17 | 2.09
B1 | 3.09
B18 | 2.13
B2 | 1.93
B3 | 3.62
B4 | 2.51
B5 | 2.23
B19 | 2.18
B6 | 1.18
B7 | 5.91
B8 | 2.7
B9 | 1.99
B20 | 2.26
B21 | 4.05
B10 | 1.81
B11 | 3.18
B12 | 1.74
B13 | 2.26
B14 | 2.51
B15 | 2.91
B16 | 1.8
